Reference: US20170306030A1

Molecular target: EGF receptor (UniProt P00533)
Test: cell-based or functional assay

| specificity of IFNα signaling, Daudi-EGFR against parental Daudi cells [fold] | Substance | inhibition of proliferation and survival of Daudi-EGFR cells (WST-1), potency against the corresponding IFNα2a mutant alone [fold] |
| --- | --- | --- |
|  | IFNα-2a (R144A) - (Gly4Ser)7 - EGF chimeric activator (from UniProt P01563 24-188; P01133 23-1207) | 100 |
| > 20 | IFNα-2a (R149A) - (Gly4Ser)7 - EGF chimeric activator (from UniProt P01563 24-188; P01133 23-1207) |  |
